From paper PMC10251306

Substrate: O=P(O)(O)OC[C@H]1O[C@H](OP(=O)(O)O)[C@H](O)[C@@H](O)[C@@H]1O
Assay: phosphatase activity, BioMol Green phosphate assay
Assay type: biochemical, Homo sapiens
Settings: without IMP, 100 mM Hepes pH 7.2, 2 mM MgCl2, 2 mM β-mercaptoethanol

B1: PMM1 (α-PMM1) (Homo sapiens) (protein)
chain: MAVTAQAARRKERVLCLFDVDGTLTPARQKIDPEVAAFLQKLRSRVQIGVVGGSDYCKIAEQLGDGDEVIEKFDYVFAENGTVQYKHGRLLSKQTIQNHLGEELLQDLINFCLSYMALLRLPKKRGTFIEFRNGMLNISPIGRSCTLEERIEFSELDKKEKIREKFVEALKTEFAGKGLRFSRGGMISFDVFPEGWDKRYCLDSLDQDSFDTIHFFGNETSPGGNDFEIFADPRTVGHSVVSPQDTVQRCREIFFPETAHEA
  Km: 18 ± 3.4 µM
  kcat: 0.018 ± 0.0012 s⁻¹
  kcat/Km: 1000 M⁻¹ s⁻¹
